Reference: IntAct's records for PubMed 29039417

B1: BBSome complex member BBS2 (Homo sapiens), Q9BXC9 (parent)
chain: MLLPVFTLKLRHKISPRMVAIGRYDGTHPCLAAATQTGKVFIHNPHTRNQHVSASRVFQSPLESDVSLLSINQAVSCLTAGVLNPELGYDALLVGTQTNLLAYDVYNNSDLFYREVADGANAIVLGTLGDISSPLAIIGGNCALQGFNHEGSDLFWTVTGDNVNSLALCDFDGDGKKELLVGSEDFDIRVFKEDEIVAEMTETEIVTSLCPMYGSRFGYALSNGTVGVYDKTSRYWRIKSKNHAMSIHAFDLNSDGVNELITGWSNGKVDARSDRTGEVIFKDNFSSAIAGVVEGDYRMDGHIQLICCSVDGEIRGYLPGTAEMRGNLMDTSAEQDLIRELSQKKQNLLLELRNYEENAKAELASPLNEADGHRGIIPANTRLHTTLSVSLGNETQTAHTELRISTSNDTIIRAVLIFAEGIFTGESHVVHPSIHNLSSSICIPIVPPKDVPVDLHLKAFVGYRSSTQFHVFESTRQLPRFSMYALTSLDPASEPISYVNFTIAERAQRVVVWLGQNFLLPEDTHIQNAPFQVCFTSLRNGGHLHIKIKLSGEITINTDDIDLAGDIIQSMASFFAIEDLQVEADFPVYFEELRKVLVKVDEYHSVHQKLSADMADHSNLIRSLLVGAEDARLMRDMKTMKSRYMELYDLNRDLLNGYKIRCNNHTELLGNLKAVNQAIQRAGRLRVGKPKNQVITACRDAIRSNNINTLFKIMRVGTASS
partner: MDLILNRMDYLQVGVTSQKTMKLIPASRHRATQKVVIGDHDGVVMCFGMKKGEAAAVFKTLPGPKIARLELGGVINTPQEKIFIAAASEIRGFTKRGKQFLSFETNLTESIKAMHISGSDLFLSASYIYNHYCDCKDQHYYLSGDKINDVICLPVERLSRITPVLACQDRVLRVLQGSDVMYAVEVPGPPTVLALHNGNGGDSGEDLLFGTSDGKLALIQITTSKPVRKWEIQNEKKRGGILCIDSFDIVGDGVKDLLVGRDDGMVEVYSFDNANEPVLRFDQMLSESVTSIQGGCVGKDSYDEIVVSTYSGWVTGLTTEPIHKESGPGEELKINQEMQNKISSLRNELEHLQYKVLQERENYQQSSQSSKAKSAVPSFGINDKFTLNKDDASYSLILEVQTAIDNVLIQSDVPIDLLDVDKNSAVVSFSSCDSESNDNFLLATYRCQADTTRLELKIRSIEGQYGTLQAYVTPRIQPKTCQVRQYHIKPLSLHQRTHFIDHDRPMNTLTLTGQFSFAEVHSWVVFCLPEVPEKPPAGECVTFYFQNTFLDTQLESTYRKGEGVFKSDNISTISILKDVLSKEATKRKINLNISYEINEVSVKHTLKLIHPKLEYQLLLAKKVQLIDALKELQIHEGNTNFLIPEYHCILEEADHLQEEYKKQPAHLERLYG

Variants of: B1
Settings: with BBS7, Q8IWZ6-2

Row | effect of a mutation on the interaction | Variant
1 | with no effect | I567E
2 | with no effect | I567K
3 | with no effect | I567A
4 | with no effect | K549E
5 | with no effect | K549A
6 | with no effect | L550E
7 | with no effect | L550K
8 | with no effect | L550A
9 | with no effect | D566K
10 | with no effect | D566A
11 | with no effect | D566E
12 | with no effect | T558A
13 | with no effect | T558E
14 | with no effect | T558K
15 | disrupting interaction strength | I561C
16 | with no effect | I561K
17 | with no effect | I561A
18 | with no effect | I561E
19 | with no effect | T555K
20 | disrupting interaction strength | T555H
21 | with no effect | T555A
22 | with no effect | T555E

Row | effect of a mutation on the interaction | Variant
23 | with no effect | D559E
24 | with no effect | D559K
25 | with no effect | D559A
26 | disrupting interaction strength | D562A
27 | with no effect | D562K
28 | with no effect | D562E
29 | with no effect | G565K
30 | with no effect | G565A
31 | with no effect | G565E
32 | with no effect | N557A
33 | with no effect | N557K
34 | with no effect | N557E
35 | with no effect | E553K
36 | with no effect | E553A
37 | with no effect | A564E
38 | disrupting interaction strength | A564R
39 | disrupting interaction strength | A564H
40 | with no effect | A564K
41 | with no effect | I554E
42 | with no effect | I554K
43 | with no effect | I554A
44 | with no effect | I556E

Row | effect of a mutation on the interaction | Variant
45 | with no effect | I556A
46 | with no effect | I556K
47 | with no effect | L563A
48 | with no effect | L563K
49 | with no effect | L563E
50 | with no effect | Q569K
51 | with no effect | Q569A
52 | with no effect | Q569E
53 | with no effect | I568K
54 | disrupting interaction strength | I568E
55 | with no effect | I568A
56 | with no effect | S570A
57 | with no effect | S551K
58 | with no effect | S551E
59 | with no effect | S551A
60 | with no effect | G552K
61 | with no effect | G552E
62 | disrupting interaction strength | G552R
63 | with no effect | G552A
64 | disrupting interaction strength | D560A
65 | with no effect | D560K
66 | with no effect | D560E

The remaining lines, values behind:

Row | Variant | effect of a mutation on the interaction
67 | I526A | with no effect
68 | I526E | with no effect
69 | I526K | with no effect
70 | L519A | with no effect
71 | L519E | disrupting interaction strength
72 | L519K | with no effect
73 | G541A | with no effect
74 | G541K | with no effect
75 | G541E | with no effect
76 | L520E | with no effect
77 | L520A | with no effect
78 | L520K | with no effect
79 | N528E | with no effect
80 | N528A | with no effect
81 | N528K | with no effect
82 | H543A | with no effect
83 | H543K | with no effect
84 | H543E | with no effect
85 | I546K | with no effect
86 | I546E | with no effect
87 | I546A | with no effect
88 | P521K | with no effect

Row | Variant | effect of a mutation on the interaction
89 | P521A | with no effect
90 | P521E | with no effect
91 | Q527E | with no effect
92 | Q527A | with no effect
93 | Q527K | with no effect
94 | V533E | disrupting interaction strength
95 | V533A | with no effect
96 | V533K | with no effect
97 | I548K | with no effect
98 | I548E | with no effect
99 | I548A | with no effect
100 | N540A | disrupting interaction strength
101 | N540E | with no effect
102 | N540K | with no effect
103 | D523E | with no effect
104 | D523A | with no effect
105 | D523K | with no effect
106 | L544K | disrupting interaction strength
107 | L544S | disrupting interaction strength
108 | L544E | disrupting interaction strength
109 | L544A | with no effect
110 | T524K | with no effect

Row | Variant | effect of a mutation on the interaction
111 | T524A | with no effect
112 | T524E | with no effect
113 | E522A | with no effect
114 | E522K | with no effect
115 | H525K | with no effect
116 | H525E | with no effect
117 | H525A | with no effect
118 | C534A | with no effect
119 | C534E | with no effect
120 | C534K | with no effect
121 | P530A | with no effect
122 | P530K | with no effect
123 | P530E | with no effect
124 | F535A | with no effect
125 | F535E | with no effect
126 | F535K | disrupting interaction strength
127 | N517K | disrupting interaction strength
128 | N517A | with no effect
129 | N517E | with no effect
130 | G515K | with no effect
131 | G515E | with no effect
132 | G515A | with no effect

Row | Variant | effect of a mutation on the interaction
133 | Q532K | with no effect
134 | Q532A | disrupting interaction strength
135 | Q532E | with no effect
136 | T536K | with no effect
137 | T536A | with no effect
138 | T536E | with no effect
139 | L514E | with no effect
140 | L514K | with no effect
141 | L514A | with no effect
142 | R539E | with no effect
143 | R539K | with no effect
144 | R539A | with no effect
145 | L538G | disrupting interaction strength
146 | L538R | disrupting interaction strength
147 | L538K | with no effect
148 | L538A | with no effect
149 | L538E | with no effect
150 | W513K | disrupting interaction strength
151 | W513R | disrupting interaction strength
152 | W513G | disrupting interaction strength
153 | K547A | with no effect
154 | K547E | disrupting interaction strength

Row | Variant | effect of a mutation on the interaction
155 | F531E | with no effect
156 | F531K | with no effect
157 | F531A | with no effect
158 | Q516K | with no effect
159 | Q516A | with no effect
160 | Q516E | with no effect
161 | F518E | with no effect
162 | F518K | with no effect
163 | F518L | disrupting interaction strength
164 | F518A | with no effect
165 | H545E | with no effect
166 | H545A | with no effect
167 | H545K | disrupting interaction strength
168 | A529E | with no effect
169 | A529K | with no effect
170 | S537K | with no effect
171 | S537A | with no effect
172 | S537E | with no effect
173 | G542K | with no effect
174 | G542A | with no effect
175 | G542E | with no effect
